According to paper PMC2120123:

Legend:
Assay in all cases: radioligand binding
[1] = target: CD45Δ826/CD44(Reg.I) fusion protein (mouse) (UniProt P06800)
[2] = target: CD44(GP85)Δ355, purified from transfected COS cells (mouse)
[3] = target: CD44(GP85)Δ320, purified from transfected COS cells (mouse)

Work on “Erythrocyte ankyrin (from UniProt P16157 1-1881) (natural protein)” yielded an Ankyrin binding (cpm) [1] of 1160 cpm, a Kd [2] of 1 nM and a Kd [3] of 2.6 nM.
